Reference: patent publication EP4265717A1

B1: anti-MCR-1/MCR-2 protein mouse mAb 1IB10 (antibody, V domains shown)
VH: VKLQQSGPELVKPGASVKMSCRASGYTFTSYVMHWVKQKPGQGLEWIGYFNPYNDGANYNEKFKGKATLSSDKSSGTAYMDLSSLTSEDSAVYYCARGPYGNYAMDYWGQGTSVTVSS
VL: DVLMTQTPLSLPVSLGDQASISCRSSQNIVCSYGNPCLEWYLQKPGQSPKLLIYKVSNRFSGVPDRFSGSGSGTDFTLKISRVEAEDLGVYYCFQSSHVPWTFGGGTELEIKR
B2: anti-MCR-1/MCR-2 protein mouse mAb 2DG5 (antibody, V domains shown)
VH: VKLQESGPGLVKPSQSLSLTCTVTGYSITSDYAWNWIRQFPGNKLEWMGQISDSAVTTYNPSLKSRISINRDTSKNQFFLQLNSVTPEDTATYYCARRNFYGYNFFDYWGRGTSLTVSS
VL: DIQMTQTTSSLSASLGDRVTINCRASQDINNYLNWYQQKPDGTVKLLIYYTSRLHSGVPSRFSGSGSRTDYSLTISNLEREDIATYFCQQGKTIHPWTFGGGTKLDIKR

Key:
[1] = biological target: mobilized colistin resistance (MCR)-1 protein; assay: indirect ELISA, plate coated with 0.2 ug/mL MCR-1 protein, purified antibody in doubling dilutions; settings: scale: reciprocal dilution
[2] = biological target: mobilized colistin resistance (MCR)-2 protein; assay: indirect ELISA, plate coated with 0.2 ug/mL MCR-2 protein, purified antibody in doubling dilutions; settings: scale: reciprocal dilution

| Binder | titer [1] | titer [2] |
| --- | --- | --- |
| B1 | > 1.28e+06 | > 1.28e+06 |
| B2 | > 1.28e+06 | > 1.28e+06 |
